Target: pooled human IgG

Protein	Enzyme Activity Endpoint Assay: Fab′2 [ng/µL]	Enzyme Activity Endpoint Assay: Fc [ng/µL]	Enzyme Activity Endpoint Assay: IgG [ng/µL]	Enzyme Activity Endpoint Assay: scIgG [ng/µL]
PRT-540 (protein) MANQEIRYSKNENPNVTIKWVHGIGEPTQAEKEKIEFYWYETNTTKFFNNRKVTHLGDSNQCWAKTASNMLHWWFVQNKENINKYIEKKNITGKINFNGEQMFDVKEGIDDNQEKEKSYIANTFRTKKAHNLSTKHKGDYIINGLAWYLYGLNNFKNAHGPTPVKKKPKFYGPALFKDVFNRGDGNTPIIEETDFKEYTKKEFEDTLSEALDSKKAIGINIYGSNVDYGHAITLWGAAFDEDENIIAIYVVDNNFKFENRIFPYGIWYEKEGRPYLFNYEINSFVKNRYVGEITTLDKGEAQWQETNLEHHHHHH	0	0	1490	0
PRT-562 (protein) MANQEIRYSKATPSHITSVWTKGVTPPEQFIQNEDVLHAPYIANQGWYDITKTFNGKDDLLCGAATAGNMLHWWFDQNKEQIENYLKKHPEKQKINFNGEQMFDVKEAIDTKDSQTNSALFSYFKDKAFPYLSTKHLGVFPDHVIDMFINGYRLSLTNHGPTPVKEQTKDPRGGIFDAVFTRGDQSKLLTSRHDFKEKTLNEISQLIKQELTEGKALGLSHTYANVRINHVINLWGADFNAEGNLEAIYVTDSDSNASIGMKKYYVGVNSAGKVAISAKEIEGDNIGAQVLGLFTLSTGQDIWQQTNLEHHHHHH	705	380	0	238
PRT-41 (protein) MANQEIRYSEVTPYHVTSVWTKGVTPPANFTQGEDVFHAPYVANQGWYDITKTFNGKDDLLCGAATAGNMLHWWFDQNKDYIDRYLEEHPEKQKINFNGEQMFDVKEAIDTKNSQLDSKLFEYFKEKAFPYLSTKHLGVFPDLVLDMFINGYRLSLTNHGPTPVKEGSKDPRGGIFDAVFTRGDQSKLLTSRHDFKEKNLKEISDLIKKELTEGKALGLSHTYANVRINHVINLWGADFDSNGNLKAIYVTDSDSNASIGMKKYFVGVNSAGKVAISAKEIKEDNIGAQVLGLFTLSTGQDSWNQTN	24	94	19	50
PRT-278 (protein) MVTSVWTKGVTPPTDFIYGEDVLHAPYKAGQGWYDITKLFNGKDNLLCGAATAGNMLHWWFDQNKEQIENYLKKHPEKQKIIFNNQELFDLKAAIDTKDSQLDSKLFDYFKEKAFPYLSTKHLGVFPDHVIDMFINGYRLSLTNHGPTPVKRGSKDKRGGIFDAVFTRGVQSKLLTNRHDLKNKTLKEISDLIKQELTEGKALGISHTYANVRINHVINLWGADFDAEGNLEAIYVTDSDTNPSIGMKKYFVGVNSSGKVAISAKEIEEDNIGAQVLGLFTLSTGQDIWNQTN	547	315	0	0
PRT-279 (protein) MVTSVWTKGVTPPTDFIYGEDVLHAPYKAGQGWYDITKLFNGKDNLLCGAATAGNMLHWWFDQNKEQIENYLKKHPEKQKIIFNNQELFDLKAAIDTKDSQLDSKLFEYFLEKAFPYLSTKHLGVFPDHVIDMFINGYRLSLTNHGPTPVKRGSKDKRGGIFDAVFTRGVQSKLLTNRHDLKNKTLKEISDLIKQELTEGKALGISHTYANVRINHVINLWGADFDAEGNLEAIAVTDSDTNASIGMKKYFVGVNSSGKVAISAKEIEEDNIGAQVLGLFTLSTGQDIWNQTN	574	359	48	0
PRT-536 (protein) MANQEIRYSGDSEWANKKVWVYGITPAEEGAWLYSTYYLPWKKEYGWYDCNKRNPTADGMMCWAASASNLMHWWIAQNKRYIDLYGDRYKGPDKINFNGEQMFDVKEYIDPLDKPQESDIFQCFIDKSFADLSTKHEAGKGDEGINWFIHGIIPSYPAHGPTPVKLRYPYNPAGYFKDVFPRGDGVVLGGNNGDFKELGKERFNETIKDALANKKGIGLSIGPVNVRKSHVETMWGAEFDENGDVSYIYMADNNDRWGVGCIRLQIVYVEGATYTCYKTEIIPSDRPIPINRLVTVELGEEYWKQTNLEHHHHHH	0	0	1530	0
PRT-546 (protein) MANQEIRYSEETPKTITSVWTKGVTPPTDFIKNEDVLHAPYIANQGWYDITKTFNGKDDLLCGAATAGNMLHWWFDQNKEEIENYLKKHPEKQKINFNGEQMFDVKEAIDTKDSQTDSALFEYFKDKAFPYLSTKHLGVFPDHVIDMFINGYRLSLTNHGPTPVKRGTKDPRGGIFDAVFTRGDQSKLLTSRHDFKEKTLNEISDLIKQELTEGKALGLSHTYANVRINHVINLWGADFNSEGNLEAIYVTDSDSNASIGMKKYYVGVNSAGKVAISAKEIEGDNIGAQVLGLFTLSTGQDIWEQTNLEHHHHHH	722	390	0	236
PRT-548 (protein) MANQEIRYSEETPKTITSVWTKGVTPPTDFIKNEDVLHAPYIANQGWYDITKTFNGKDDLLCGAATAGNMLHWWFDQNKEEIENYLKKHPEKQKINFNGEQMFDVKEAIDTKDSQTDSALFEYFKDKAFPYLSTKHLGVFPDHVIDMFINGYRLSLTNHGPTPVKRGTKDPRGGIFDAVFTRGDQTKLLTARHDFKEKTLNEISDLIKQELTEGKALGLSHTYANVRINHVINLWGADFNSEGNLEAIYVTDSDSNASIGMKKYYVGVNAAGKVAISAKEIEGDNIGAQVLGLFTLSTGQDIWEQTNLEHHHHHH	727	458	0	0
PRT-551 (protein) MANQEIRYSEETPSTITSVWTKGVTPPTDFIQNEDVLHAPYIANQGWYDITKTFNGKDDLLCGAATAGNMLHWWFDQNKEEIENYLKKHPEKQKINFNGEQMFDVKEAIDTKDSQTDSALFEYFKDKAFPYLSTKHLGVFPDHVIDMFINGYRLSLTNHGPTPVKRGTKDPRGGIFDAVFTRGDQSKLLTARHDFKEKTLNEISDLIKQELTEGKALGLSHTYANVRINHVINLWGADFNSEGNLEAIYVTDSDSNASIGMKKYYVGVNAAGKVAISAKEIEGDNIGAQVLGLFTLSTGQDIWNQTNLEHHHHHH	444	217	0	0
PRT-592 (protein) MANQEIRYSEETPSTITSVWTKGVTPPTDFIQNEDVLHAPYIANQGWYDITKTFNGKDDLLCGAATAGNMLHWWFDQNKEQIENYLKKHPEKQKINFNGEQMFDVKEAIDTKNSQTDSALFEYFKDKAFPYLSTKHLGVFPDHVIDMFINGYRLSLTNHGPTPVKRGTKDPRGGIFDAVFTRGDQSKLLTSRHDFKEKTLNEISDLIKQELTEGKALGLSHTYANVRINHVINLWGADFNAEGNLEAIYVTDSDSNASIGMKKYYVGVNSAGKVAISAKEIEGDNIGAQVLGLFTLSTGQDIWNQTNLEHHHHHH	664	359	0	0
PRT-2 (protein) MANQEIRYSEVTPYHVTSVWTKGVTPPAKFTQGEDVFHAPYVANQGWYDITKTFNGKDDLLCGAATAGNMLHWWFDQNKEKIEAYLKKHPDKQKIMFGDQELLDVRKVINTKGDQTNSELFNYFRDKAFPGLSARRIGVMPDLVLDMFINGYYLNVYKTQTTDVNRTYQEKDRRGGIFDAVFTRGDQSKLLTSRHDFKEKNLKEISDLIKKELTEGKALGLSHTYANVRINHVINLWGADFDSNGNLKAIYVTDSDSNASIGMKKYFVGVNSAGKVAISAKEIKEDNIGAQVLGLFTLSTGQDSWNQTN	47	94	21	0
PRT-286 (protein) MVTSVWTKGVTPPAKFTQGEDVFHAPYDANQGWYDITKTFNGKDDLLCGAATAGNMLHWWFDQNKEKIEAYLKKHPDKQKIMFGDQELLDVRKVINTKGDQTNSELFNYFRDKAFPNLSARRIGVMPDLVLDMFINGYYLNVYKTQTTDVNRTYQEKDRRGGIFDAVFTRGDQSKLLTSRHDFKEKNLKEISDLIKKELTEGKALGLSHTYANVRISHVINLWGADFDSNGNLKAIYVTDSDSNASIGMKKYFVGVNSSGKVAISAKEIKEDNIGAQVLGLFTLSTGQDSWNQTN	650	352	0	0
PRT-287 (protein) MVTSVWTKGVTPPAKFTQGEDVFHAPYVANQGWYDITKEFNGKDDLLCGAATAGNMLHWWFDQNKEKIEAYLKKHPDKQKIMFGDQELLDVRKVINTKGDQTNSELFNYFRDKAFPNLSARRIGVMPDLVLDMFINGYYLNVYKTQTTDVNRTYQEKDRRGGIFDAVFTRGDQSKLLTSRHDFKEKNLKEISDLIKKELTEGKALGLSHTYANVRIGHVINLWGADFDSNGNLKAIYVTDSDSNASIGMKKYGVGVNSAGKVAISAKEIKEDNIGAQVLGLFTLSTGQDSWNQTN	700	392	0	0
PRT-530 (protein) MANQEIRYSEETPKTITSVWTKGVTPPTDFIQNEDVLHAPYIANQGWYDITKTFNGKDDLLCGAATAGNMLHWWFDQNKEEIENYLKKHPEKQKINFNGEQMFDVKEAIDTKDSQTDSALFEYFKDKAFPYLSTKHLGVMPDLVLDMFINGYYLSVGKHGPTPVKRGTKDPRGGIFDAVFTRGDQSKLLTARHDFKEKTLNEISDLIKQELTEGKALALSHTYANVRINHVINLWGADFNSEGNLEAIYVTDSDSNASIGMKKYYVGVNAAGKVAISAKEIEGDNIGAQVLGLFTLSTGQDIWEQTNLEHHHHHH	87	225	74	687

From US20250027068
